Changes are numbered by the printed parent chain.
B1: SULT1A1 Homo sapiens: aryl sulfotransferase SULT1A1 Homo sapiens (SEQ ID NO: 2) (protein, listed as Homo sapiens)
chain: MELIQDTSRPPLEYVKGVPLIKYFAEALGPLQSFQARPDDLLISTYPKSGTTWVSQILDMIYQGGDLEKCHRAPIFMRVPFLEFKAPGIPSGMETLKDTPAPRLLKTHLPLALLPQTLLDQKVKVVYVARNAKDVAVSYYHFYHMAKVHPEPGTWDSFLEKFMVGEVSYGSWYQHVQEWWELSRTHPVLYLFYEDMKENPKREIQKILEFVGRSLPEETVDFMVQHTSFKEMKKNPMTNYTTVPQEFMDHSISPFMRKGMAGDWKTTFTVAQNERFDADYAEKMAGCSLSFRSEL
B2: SULT1A1 Equus caballus: aryl sulfotransferase SULT1A1 Equus caballus (SEQ ID NO: 3) (protein, listed as Equus caballus)
chain: MELIQDTSRPPLKYVKGVPLIKYFAEALGPLQSFQARPDDLLISTYPKSGTTWVSEILDMIYHGGDLEKCRRAPIFIRVPFLEFKAPEIPSGVEVLKDTPAPRLLKTHLPLSLLPQTLLDQKVKVVYLARNAKDVAVSYYHFYRMAKVHPDPGTWDSFLEKFMAGEVSYGSWYKHVQEWWELSHTHPVLYLFYEDMKENPKKEIQKILEFVGRSLPEETLDRIVQHTSFKEMKKNPMANYSTIPCDIMDHNISAFMRKGIAGDWKNTFTVAQNEHFDTDYAEKMAGCKLSFRSEV
B3: SULT1A1 Sus scrofa domesticus: aryl sulfotransferase SULT1A1 Sus scrofa domesticus (SEQ ID NO: 4) (protein, listed as Sus scrofa)
chain: MEPVQDTYRPPLEYVKGVPLIKYFAEALGPLESFQAWPDDVLISTYPKSGTTWVSEILDLIYQGGDLQKCQRAPIFVRVPFLEFKIPGCPTGFELLKDTPAPRLLKTHLPLALLPQTLLDQKVKVVYVARNAKDVAVSYYHFYRMAKVHPNPGTWDSFLEDFMAGEVSYGSWYQHVQEWWELRHTHPVLYLFYEDMKENPKREIQKILEFVGRSLPEETVEDIVQHTSFQEMKNNAMTNYRTLPSDLLDHSISAFMRKGITGDWKSTFTVAQNERFEADYAEKMAGCNLRFRSEL
B4: SULT1A1 Canis lupus familiaris: aryl sulfotransferase SULT1A1 Canis lupus familiaris (SEQ ID NO: 5) (protein, listed as Canis lupus)
chain: MEDIPDTSRPPLKYVKGIPLIKYFAEALESLQDFQAQPDDLLISTYPKSGTTWVSEILDMIYQDGDVEKCRRAPVFIRVPFLEFKAPGIPTGLEVLKDTPAPRLIKTHLPLALLPQTLLDQKVKVVYVARNAKDVAVSYYHFYRMAKVHPDPDTWDSFLEKFMAGEVSYGSWYQHVQEWWELSHTHPVLYLFYEDMKENPKREIQKILKFVGRSLPEETVDLIVQHTSFKEMKNNSMANYTTLSPDIMDHSISAFMRKGISGDWKTTFTVAQNERFDADYAKKMEGCGLSFRTQL
B5: SULT1E1 Gallus gallus domesticus: aryl sulfotransferase SULT1E1 Gallus gallus domesticus (SEQ ID NO: 6) (protein, listed as Gallus gallus)
chain: MGNDEVIRQDLGCLYDIPLYKCFVAGWPQVEAFQARPDDLLIATYPKSGTTWLSEILDAIYHDGDLEKCRRDAIYNRVPFLEMKAPGILSGVEQLEKIPSPRLVKTHLPVHLLPASFQEKDCKVIYMARNAKDVVISYYYFYQMAKIHPDPGTLSEFLQAFMDGKVAYGSWYKHVKGWWEKRHEKRLLYLFYEDMKKDPRREIQKILQFLGKEVAEETVARILHHTSFQEMKKNPATNYETMPTELMDHSLSPFMRKGISGDWANHFTVAQNERFDQHYQQQMAGSDLCFQMEA
B6: SULT1A1 Homo sapiens, CysDNC: SULT1A1 Homo sapiens co-expressed with E. coli cysDNC (ATP sulfurylase and APS kinase) (protein, UniProt P50225 1-295, looked up)
Sulfotransferase 1A1: B1 chain with M223V
modifications: co-expressed with E. coli cysDNC
B7: SULT1A1 Homo sapiens, CysDNCQ: SULT1A1 Homo sapiens co-expressed with E. coli artificial operon cysDNCQ (plus PAP phosphatase cysQ) (protein, UniProt P50225 1-295, looked up)
Sulfotransferase 1A1: B1 chain with M223V
modifications: co-expressed with E. coli cysDNCQ

Experiments:
Assay type in all cases: cell-based, Escherichia coli
pHCA [1] = test: Production of zosteric acid in E. coli from pHCA through heterologous expression of sulfotransferases; settings: culture media; M9 glucose, 0.1 mM IPTG, 0.1 mM pHCA, four days of growth
Description: A range of aryl sulfotransferases including SULT1A1 Rattus norvegicus (SEQ ID NO: 1), SULT1A1 Homo sapiens (SEQ ID NO: 2), SULT1A1 Equus caballus (SEQ ID NO: 3), SULT1A1 Sus scrofa domesticus (SEQ ID NO: 4), SULT1A1 Canis lupus familiaris (SEQ ID NO: 5) and SULT1E1 Gallus gallus domesticus (SEQ ID NO: 6) were expressed in Escherichia coli. […]. The nucleotide sequence of the gene encoding SEQ ID NO: 2 was codon optimized for expression in Escherichia coli (GeneArt, Life Technologies) and amplified by PCR using the primers in Table 1. The pETDuet-1 plasmid was digested with restriction endonucleases Ncol and Sal. The PCR products were then individually cloned into the plasmid pETDuet-1 using the Gibson reaction (New England Biolabs). The resulting plasmids were transformed into BL21(DE3)pLysS (Life Technologies).
(§1) The strains were grown in M9 minimal media containing glucose as a carbon source, and 0.1 mM IPTG for induction of gene expression as well as 0.1 mM p-coumaric acid (pHCA). After four days of growth, samples were withdrawn by filtration and analyzed by HPLC.
(§2) The concentration of p-courmaric acid (pHCA) and zosteric acid in the supernatant was quantified by high performance (HPLC) and compared to chemical standards. HPLC was done on a Thermo setup using a HS-F5 column and mobile phases: 5 mM ammonium formate pH 4.0 (A) and acetonitrile (B) at 1.5 mL min-1, using a gradient elution starting at 5% B. From 0.5 min after injection to 7 min, the fraction of B increased linearly from 5% to 60%, and between 9.5 min and 9.6 the fraction of B decreased back to 5%, and remaining there until 12 min. pHCA and zosteric acid were quantified by measuring absorbance at 277 nm.
Zosteric acid was formed with an aryl sulfotransferase heterologously expressed in a microorganism exemplified by E. coli supplied with the substrate.

pHCA [2] = test: Zosteric acid production in E. coli expressing an aryl sulfotransferase in combination with cysDNC and cysQ; settings: grown as in Example 1 (0.1 mM pHCA)
Protocol: as §1, §2
The plasmid pRSFDuet-1 (Life Technologies) was digested by the restriction endonucleases NdeI and BgIII. The gene cluster was inserted into the digested plasmid using the Gibson reaction (New England Biolabs). […] For the combined expression of cysDNC and cysQ in an artificial operon, cysDNCQ, the two parts were amplified by PCR from E. coli MG1655 chromosomal DNA using the primers shown in Table 3. Again the parts were inserted into the digested plasmid. […] The plasmid expressing SULT1A1 Homo sapiens (SEQ ID NO: 2) from example 1 was co-transformed into E. coli BL21(DE3)pLysS cells (Life Technologies) with either the plasmid expressing cysDNC or cysDNCQ.
Cells were grown as in Example 1 and the supernatants were analyzed for product formation as in example 1. The strain expressing SULT1A1 in combination with cysDNCQ was also grown without the addition of IPTIG for induction.

kaempferol = test: Percent conversion of substrate by E. coli cells expressing sulfotransferases; settings: 87 μM kaempferol, M9 medium, overnight 37° C.
Protocol: as §2
(§3) Different sulfotransferases were examined for their substrate specificities against three substrates. We tested the sulfotransferases mentioned in example 1, as well as additional ones. The genes encoding these were cloned as described in example 1 using the primers shown in the table below from cDNA libraries of the respective organisms, except for the SULT1A1 from rat (Rattus norvegicus) codon-optimized for E. coli (described above). The resulting vectors were transformed into BL21(DE3)pLysS.
(§4) The resulting strains were grown in M9 medium containing either 100 μM pHCA, 95 μM resveratrol or 87 M kaempferol. The cultures were grown overnight at 37° C., 300 rpm. The following day the supernatants were isolated and examined by HPLC as described in example 1.

pHCA [3] = test: as above; settings: 100 μM pHCA, M9 medium, overnight 37° C.
Protocol: as §2, §3, §4

resveratrol = test: as above; settings: 95 μM resveratrol, M9 medium, overnight 37° C.
Protocol: as §2, §3, §4

Molecule | Zosteric acid formed (pHCA [1]) [mM] | pHCA remaining (pHCA [1]) [mM] | Zosteric acid formed (pHCA [2]; induction 0.1 mM IPTG) [mM] | pHCA remaining (pHCA [2]; induction 0.1 mM IPTG) [mM] | percent conversion of kaempferol (kaempferol) [%] | percent conversion of pHCA (pHCA [3]) [%] | percent conversion of resveratrol (resveratrol) [%] | pHCA remaining (pHCA [2]; induction None) [mM]
B1 | 0.02 | 0.08 | 0.02 | 0.08 | 97 | 39 | 36 | –
B2 | 0.01 | 0.09 | – | – | 96 | 21 | 100 | –
B3 | 0.01 | 0.09 | – | – | 45 | 8 | 88 | –
B4 | 0.01 | 0.10 | – | – | 60 | 34 | 61 | –
B5 | 0.01 | 0.08 | – | – | 47 | 17 | 100 | –
B6 | – | – | 0.06 | 0.06 | – | – | – | –
B7 | – | – | 0.09 | 0.04 | – | – | – | 0.10
